This data set deals with the molecule itself. The data set can be described thus: SEC; Biosep-SEC-S3000 column; 20 mM Tris-HCl, 20 mM MES, 200 mM NaCl, 10 mM MgCl2, 0.1 mM EDTA, 7 mM 2-mercaptoethanol, pH 6.5; 25 °C; apparent molecular mass against injected monomer concentration, fitted to a monomer-dimer equilibrium; apparent constants; dimer to monomers. A general note: In gel filtration, larger molecules generally elute earlier.

B1: V583 ArdA (ArdA protein from Enterococcus faecalis V583, Orf EF2335) (natural protein, UniProt Q832A5 1-166, looked up)
chain: MEQMRVYIANLGKYNEGELVGAWFTPPVDFDEVKERIGLNDDYEEYAIHDYELPFEIDEYTSIEEINRLCGLAEELEGTPIGEVASEIQHAFFNSFEEMVEHVDDIVYYPDCNDMEDLAYQMVNEGYLGDAPENFVRYFNYSSFARDLEIEGNYLVTNRGIFEYPI
notes: ArdA protein, open reading frame EF2335 of Enterococcus faecalis V583; In solution an equilibrium of monomer and dimer; source: overexpressed, purified (DEAE anion exchange chromatography, size exclusion chromatography)
As for B1, the Kd amounted to 980 nM.

Source of the values: paper PMC3969726, “ArdA proteins from different mobile genetic elements can bind to the EcoKI Type I DNA methyltransferase of E. coli K12^☆” (Biochimica et Biophysica Acta, 2014).
